# Experimental data reported in paper PMC9672952.
# Tests used:
# [1] = biological target: RseP from Staphylococcus arlettae LMGT 4134, without His-tag (Staphylococcus arlettae LMGT 4134)
# [2] = biological target: RseP from Lactococcus lactis IL1403, without His-tag (Lactococcus lactis IL1403)
# [3] = biological target: RseP from Staphylococcus haemolyticus, without His-tag (Staphylococcus haemolyticus)
# [4] = biological target: RseP from Enterococcus faecalis V583, without His-tag (Enterococcus faecalis V583) (UniProt Q9RPP2)
# [5] = biological target: RseP from Lactiplantibacillus plantarum WCFS1, without His-tag (Lactiplantibacillus plantarum WCFS1)
# [6] = biological target: RseP from Enterococcus faecium P21, without His-tag (Enterococcus faecium P21) (UniProt I3U2R6)
# [7] = biological target: RseP from Staphylococcus aureus ATCC 14458, without His-tag (Staphylococcus aureus ATCC 14458)
# [8] = biological target: EfmRseP with substitution N364A (Enterococcus faecium P21) (UniProt I3U2R6); assay: flow cytometry on cells; noninduced L. plantarum cells expressing the RseP variant, 1 μM FITC-labeled EntK1 in 100 μM triammonium citrate pH 6.5, 20 min, room temperature; median fluorescence intensity relative to cells expressing EfmRseP (rMFI), triplicate
# [9] = biological target: EfmRseP with the triple alanine substitution of the HExxH motif (Enterococcus faecium P21) (UniProt I3U2R6); assay: as above
# [10] = biological target: Fusion of LpRseP (1–171, 326–425) and EfmRseP (172–325) (Lactiplantibacillus plantarum WCFS1 | Enterococcus faecium P21) (UniProt I3U2R6); assay: as above
# [11] = biological target: EfmRseP with substitution D372A (Enterococcus faecium P21) (UniProt I3U2R6); assay: as above
# [12] = biological target: Fusion of LpRseP (1–201, 328–425) and EfmRseP (202–327) (Lactiplantibacillus plantarum WCFS1 | Enterococcus faecium P21) (UniProt I3U2R6); assay: as above
# [13] = biological target: EfmRseP with substitution P369A (Enterococcus faecium P21) (UniProt I3U2R6); assay: as above
# [14] = biological target: EfmRseP with substitution E19A (Enterococcus faecium P21) (UniProt I3U2R6); assay: as above
# [15] = biological target: EfmRseP with substitution P367A (Enterococcus faecium P21) (UniProt I3U2R6); assay: as above
# [16] = biological target: EfmRseP with substitution H22A (Enterococcus faecium P21) (UniProt I3U2R6); assay: as above
# [17] = biological target: Truncation of EfmRseP (1–39, 139–422) Δ40–138 (Enterococcus faecium P21) (UniProt I3U2R6); assay: as above
# [18] = biological target: RseP from Enterococcus faecium P21, C-terminal 6× His-tag (Enterococcus faecium P21) (UniProt I3U2R6); assay: as above
# [19] = biological target: EfmRseP with substitution H18A (Enterococcus faecium P21) (UniProt I3U2R6); assay: as above
# [20] = biological target: Fusion of EfmRseP (1–221) and LpRseP (222–425) (Enterococcus faecium P21 | Lactiplantibacillus plantarum WCFS1) (UniProt I3U2R6); assay: as above
# [21] = biological target: Fusion of EfmRseP (1–325) and LpRseP (326–425) (Enterococcus faecium P21 | Lactiplantibacillus plantarum WCFS1) (UniProt I3U2R6); assay: as above
# [22] = biological target: RseP from Lactiplantibacillus plantarum WCFS1, C-terminal 6× His-tag (Lactiplantibacillus plantarum WCFS1); assay: as above
substance,measurement,setting,value
FITC-labeled Enterocin K1 (peptide),"MIC50 of FITC-EntK1 (growth inhibition, microtiter plate) towards L. plantarum expressing this RseP; footnote: low expression may contribute",[1],> 20 µM
same,"MIC50 of FITC-EntK1 (growth inhibition, microtiter plate) towards L. plantarum expressing this RseP",[2],> 20 µM
same,"MIC50 of FITC-EntK1 (growth inhibition, microtiter plate) towards L. plantarum expressing this RseP",[3],> 20 µM
same,"MIC50 of FITC-EntK1 (growth inhibition, microtiter plate) towards L. plantarum expressing this RseP",[4],0.6 µM
same,"MIC50 of FITC-EntK1 (growth inhibition, microtiter plate) towards L. plantarum expressing this RseP",[5],> 20 µM
same,"MIC50 of FITC-EntK1 (growth inhibition, microtiter plate) towards L. plantarum expressing this RseP",[6],0.15 µM
same,"MIC50 of FITC-EntK1 (growth inhibition, microtiter plate) towards L. plantarum expressing this RseP; footnote: low expression may contribute",[7],> 20 µM
same,rMFI % (relative median fluorescence intensity),[8],83.4%
same,rMFI % (relative median fluorescence intensity),[9],0.5%
same,rMFI % (relative median fluorescence intensity),[10],78%
same,rMFI % (relative median fluorescence intensity),[11],80.6%
same,rMFI % (relative median fluorescence intensity),[12],54.8%
same,rMFI % (relative median fluorescence intensity),[13],84.4%
same,rMFI % (relative median fluorescence intensity),[14],65.4%
same,rMFI % (relative median fluorescence intensity),[15],89.1%
same,rMFI % (relative median fluorescence intensity),[16],59%
same,rMFI % (relative median fluorescence intensity),[17],7.4%
same,rMFI % (relative median fluorescence intensity),[18],100%
same,rMFI % (relative median fluorescence intensity),[19],61.6%
same,rMFI % (relative median fluorescence intensity),[20],37.6%
same,rMFI % (relative median fluorescence intensity),[21],97.6%
same,rMFI % (relative median fluorescence intensity),[22],0.41%
